Experimental data from IntAct's records for PubMed 16328881.

B1: Minichromosome maintenance protein 10 (Saccharomyces cerevisiae), P32354 (parent)
chain: MNDPREILAVDPYNNITSDEEDEQAIARELEFMERKRQALVERLKRKQEFKKPQDPNFEAIEVPQSPTKNRVKVGSHNATQQGTKFEGSNINEVRLSQLQQQPKPPASTTTYFMEKFQNAKKNEDKQIAKFESMMNARVHTFSTDEKKYVPIITNELESFSNLWVKKRYIPEDDLKRALHEIKILRLGKLFAKIRPPKFQEPEYANWATVGLISHKSDIKFTSSEKPVKFFMFTITDFQHTLDVYIFGKKGVERYYNLRLGDVIAILNPEVLPWRPSGRGNFIKSFNLRISHDFKCILEIGSSRDLGWCPIVNKKTHKKCGSPINISLHKCCDYHREVQFRGTSAKRIELNGGYALGAPTKVDSQPSLYKAKGENGFNIIKGTRKRLSEEEERLKKSSHNFTNSNSAKAFFDEKFQNPDMLANLDNKRRKIIETKKSTALSRELGKIMRRRESSGLEDKSVGERQKMKRTTESALQTGLIQRLGFDPTHGKISQVLKSSVSGSEPKNNLLGKKKTVINDLLHYKKEKVILAPSKNEWFKKRSHREEVWQKHFGSKETKETSDGSASDLEII

Variants of: B1
Conditions: with sir2_yeast SIR2, P06700
Sequence of sir2_yeast SIR2, P06700 (P06700 whole entry): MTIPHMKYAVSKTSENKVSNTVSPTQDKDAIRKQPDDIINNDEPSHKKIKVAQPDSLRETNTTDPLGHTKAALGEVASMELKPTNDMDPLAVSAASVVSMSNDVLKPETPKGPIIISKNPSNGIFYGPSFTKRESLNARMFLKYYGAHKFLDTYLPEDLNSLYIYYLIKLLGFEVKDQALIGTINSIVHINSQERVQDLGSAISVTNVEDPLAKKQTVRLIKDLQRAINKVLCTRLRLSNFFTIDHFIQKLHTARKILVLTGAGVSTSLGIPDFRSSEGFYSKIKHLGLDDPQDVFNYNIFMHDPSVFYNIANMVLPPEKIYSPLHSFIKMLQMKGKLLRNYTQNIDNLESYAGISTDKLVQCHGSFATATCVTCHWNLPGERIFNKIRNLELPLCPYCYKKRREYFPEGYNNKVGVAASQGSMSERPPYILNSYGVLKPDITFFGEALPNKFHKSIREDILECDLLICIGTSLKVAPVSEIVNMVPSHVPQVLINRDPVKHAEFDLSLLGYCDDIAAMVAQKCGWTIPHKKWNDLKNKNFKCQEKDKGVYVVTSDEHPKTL

Variant	effect of a mutation on the interaction
P269L	disrupting interaction strength

Variants of: B1
Conditions: with sir3_yeast SIR3, P06701
Sequence of sir3_yeast SIR3, P06701 (P06701 whole entry): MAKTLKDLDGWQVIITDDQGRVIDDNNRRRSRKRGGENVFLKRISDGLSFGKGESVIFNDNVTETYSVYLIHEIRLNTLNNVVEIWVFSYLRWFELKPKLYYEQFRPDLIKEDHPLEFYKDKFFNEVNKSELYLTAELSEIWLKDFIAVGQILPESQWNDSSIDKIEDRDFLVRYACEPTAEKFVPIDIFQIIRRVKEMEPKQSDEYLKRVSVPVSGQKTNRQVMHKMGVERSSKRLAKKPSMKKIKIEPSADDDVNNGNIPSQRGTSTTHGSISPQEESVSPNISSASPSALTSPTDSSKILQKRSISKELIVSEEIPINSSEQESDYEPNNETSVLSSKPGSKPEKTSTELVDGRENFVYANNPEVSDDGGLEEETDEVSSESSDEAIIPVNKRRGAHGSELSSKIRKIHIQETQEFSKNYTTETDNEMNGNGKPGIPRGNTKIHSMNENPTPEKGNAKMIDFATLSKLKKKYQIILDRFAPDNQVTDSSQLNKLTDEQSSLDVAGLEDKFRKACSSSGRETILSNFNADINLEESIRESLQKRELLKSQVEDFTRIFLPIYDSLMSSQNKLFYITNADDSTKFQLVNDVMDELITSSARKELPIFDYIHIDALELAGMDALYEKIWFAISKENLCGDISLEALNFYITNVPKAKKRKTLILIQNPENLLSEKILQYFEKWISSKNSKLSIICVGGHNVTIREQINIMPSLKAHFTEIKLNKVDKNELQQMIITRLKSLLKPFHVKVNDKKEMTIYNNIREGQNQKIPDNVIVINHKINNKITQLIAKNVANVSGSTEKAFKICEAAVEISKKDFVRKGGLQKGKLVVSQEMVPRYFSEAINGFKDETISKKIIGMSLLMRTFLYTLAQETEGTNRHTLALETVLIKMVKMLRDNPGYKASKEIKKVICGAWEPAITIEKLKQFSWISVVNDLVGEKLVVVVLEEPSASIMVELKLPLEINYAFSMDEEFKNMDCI

Variant	effect of a mutation on the interaction
P269L	disrupting interaction strength
C320Y	disrupting interaction strength
